Publication PMC5803212, “Supramolecular aptamer nano-constructs for receptor-mediated targeting and light-triggered release of chemotherapeutics into cancer cells”

B1: trCLN3 (structured_DNA)
DNA: TGGATGGTAGCTCGGTCGGGGTGGGTGGGTTGGCAAGTCT

What was measured:
[1] = target: cMet-Fc (HGFR ectodomain fused to human IgG1 Fc) (human) (UniProt P08581); assay: competition filter binding; settings: vs 5'-32P-trCLN3; ~50 nM cMet; four 5'-terminal 5-(1-dodecynyl)-dU (C12 lipid; printed as LLLL, written as UUUU); 1x PBS pH 7.4, 2 mM MgCl2, 0.1 mg/mL E. coli tRNA, 0.25 mg/mL BSA, 37 C, 30 min; ~25 fmol 32P-trCLN3, ~50 nM cMet, 25 uL, nitrocellulose filter
Sequence of cMet-Fc (HGFR ectodomain fused to human IgG1 Fc) (human) (P08581 25-932): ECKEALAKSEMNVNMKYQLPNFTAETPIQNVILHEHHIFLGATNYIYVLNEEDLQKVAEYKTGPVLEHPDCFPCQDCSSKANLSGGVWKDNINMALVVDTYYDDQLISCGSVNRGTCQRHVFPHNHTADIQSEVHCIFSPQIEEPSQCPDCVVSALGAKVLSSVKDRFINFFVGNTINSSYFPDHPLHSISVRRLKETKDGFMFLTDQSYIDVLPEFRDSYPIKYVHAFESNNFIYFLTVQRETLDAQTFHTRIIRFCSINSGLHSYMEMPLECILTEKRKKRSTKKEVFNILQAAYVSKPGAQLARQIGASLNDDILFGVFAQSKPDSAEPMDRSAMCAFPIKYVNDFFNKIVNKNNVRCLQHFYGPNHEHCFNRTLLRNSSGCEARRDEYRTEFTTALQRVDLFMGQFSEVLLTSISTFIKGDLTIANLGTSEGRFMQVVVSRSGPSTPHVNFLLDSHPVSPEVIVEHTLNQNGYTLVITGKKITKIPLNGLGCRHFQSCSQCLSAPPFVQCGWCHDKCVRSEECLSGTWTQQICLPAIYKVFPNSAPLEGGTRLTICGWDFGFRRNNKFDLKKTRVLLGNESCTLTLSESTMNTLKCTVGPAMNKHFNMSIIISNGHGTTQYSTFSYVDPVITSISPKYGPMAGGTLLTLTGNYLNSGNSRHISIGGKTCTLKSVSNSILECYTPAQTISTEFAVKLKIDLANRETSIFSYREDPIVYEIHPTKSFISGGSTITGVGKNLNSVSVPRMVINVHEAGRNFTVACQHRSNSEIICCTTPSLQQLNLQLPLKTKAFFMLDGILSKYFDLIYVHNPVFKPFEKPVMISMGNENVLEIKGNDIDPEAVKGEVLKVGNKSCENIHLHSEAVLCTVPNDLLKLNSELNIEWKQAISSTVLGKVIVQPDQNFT

[2] = target: cMet-Fc (HGFR ectodomain fused to human IgG1 Fc) (human, UniProt P08581 25-932); assay: competition filter binding; vs 5'-32P-trCLN3; ~50 nM cMet; 1x PBS pH 7.4, 2 mM MgCl2, 0.1 mg/mL E. coli tRNA, 0.25 mg/mL BSA, 37 C, 30 min; ~25 fmol 32P-trCLN3, ~50 nM cMet, 25 uL, nitrocellulose filter; settings: protein: commercial; two predicted intramolecular G-quadruplexes
Sequence of cMet-Fc (HGFR ectodomain fused to human IgG1 Fc) (P08581 25-932): as above

Molecule | IC50 [1] | IC50 [2]
UUUUTGGATGGTAGCTCGGTCGGGGTGGGTGGGTTGGCAAGTCT [trCLN3-L4] | 43 nM | –
B1 | – | 56 nM
